Test results reported in patent US11293031B2.

System: CN1CCC[C@H]1c1cccnc1
Experiment: cells, lysate or membranes named
Conditions: other: nicotine demethylase reaction, yeast microsomes, 25° C., pH 7.1, mean±standard error

Substance: NtabCYP82E5v2 (Nicotiana tabacum)
- Km: 5.6 ± 1.4 µM
- Vmax: 0.7±0.02 nmol min^−1 mg^−1 protein
